According to patent US20150337046A1 (published 2015):

T1: human LIGHT (hLIGHT), cell surface-expressed, full length (UniProt O43557 1-240)
T1 chain: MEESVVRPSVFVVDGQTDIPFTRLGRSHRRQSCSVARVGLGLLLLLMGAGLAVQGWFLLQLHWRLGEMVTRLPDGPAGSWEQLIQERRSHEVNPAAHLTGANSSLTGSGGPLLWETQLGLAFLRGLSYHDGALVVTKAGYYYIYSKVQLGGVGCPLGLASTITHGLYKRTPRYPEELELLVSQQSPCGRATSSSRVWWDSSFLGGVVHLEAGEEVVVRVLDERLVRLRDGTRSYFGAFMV


Target: T1, human LIGHT (hLIGHT), cell …
Experiment: FACS binding; 293-hLIGHT cells

EC50 | Binder
0.547 µg/mL | recombinant single kappa chain antibody of E1 heavy chain paired with Elkappa(B) (antibody, V domains shown) VH: EVQLVESGGGLVQPGGSLRLSCAASGFTFSRFNMNWVRQAPGKGLEWVSYISSSSYTIYYADSVKGRFTISRDNAKNSLDLQMNSLRDEDTAVYYCARSIAAAFDYWGQGALVTVSS VL: not shown
0.463 µg/mL | E1 antibody (produced by hybridoma 124 E1, ATCC Accession No. PTA-7729) (antibody, V domains shown) VH: EVQLVESGGGLVQPGGSLRLSCAASGFTFSRFNMNWVRQAPGKGLEWVSYISSSSYTIYYADSVKGRFTISRDNAKNSLDLQMNSLRDEDTAVYYCARSIAAAFDYWGQGALVTVSS VL: not shown
